Ends that are not written are not given here. * marks the point of attachment. Crotonyl(E) = C/C=C/C(=O)*
How the values were obtained:
[1] = target: His-Taf14ET (S. cerevisiae) (UniProt P35189); test: MST; His-tagged Taf14 protein labeled with RED-tris-NTA kept at 20 nM, unlabeled peptide added stepwise; 20 mM Tris-HCl pH 7.5, 150 mM NaCl, 0–0.2 mM TCEP; Monolith NT.115; n = 2 or 3
[2] = test system: Taf14dET (Saccharomyces cerevisiae); test: EMSA; conditions: EMSA: 20-25 mM Tris-HCl pH 7.5, 100-150 mM NaCl, 0.2 mM EDTA (+20% glycerol for NCP), 4 °C 10 min, 0.25 pmol/lane; NMR: 50 mM Tris pH 6.6-7.5, 150 mM NaCl or …
[3] = test system: Taf14dYEATS (Saccharomyces cerevisiae); test: EMSA; conditions: EMSA: 20-25 mM Tris-HCl pH 7.5, 100-150 mM NaCl, 0.2 mM EDTA (+20% glycerol for NCP), 4 °C 10 min, 0.25 pmol/lane; NMR: 50 mM Tris pH 6.6-7.5, 150 mM NaCl or …
[4] = target: FAM-labeled Taf2CT peptide (S. cerevisiae) (UniProt P23255); test: MST; FAM-labeled Taf2CT peptide kept at 20 nM, Taf14ET varied; 20 mM Tris-HCl pH 7.5, 150 mM NaCl, 0–0.2 mM TCEP; Monolith NT.115; n = 3
Sequence of FAM-labeled Taf2CT peptide (S. cerevisiae) (P23255 whole entry, looked up, tested part not stated): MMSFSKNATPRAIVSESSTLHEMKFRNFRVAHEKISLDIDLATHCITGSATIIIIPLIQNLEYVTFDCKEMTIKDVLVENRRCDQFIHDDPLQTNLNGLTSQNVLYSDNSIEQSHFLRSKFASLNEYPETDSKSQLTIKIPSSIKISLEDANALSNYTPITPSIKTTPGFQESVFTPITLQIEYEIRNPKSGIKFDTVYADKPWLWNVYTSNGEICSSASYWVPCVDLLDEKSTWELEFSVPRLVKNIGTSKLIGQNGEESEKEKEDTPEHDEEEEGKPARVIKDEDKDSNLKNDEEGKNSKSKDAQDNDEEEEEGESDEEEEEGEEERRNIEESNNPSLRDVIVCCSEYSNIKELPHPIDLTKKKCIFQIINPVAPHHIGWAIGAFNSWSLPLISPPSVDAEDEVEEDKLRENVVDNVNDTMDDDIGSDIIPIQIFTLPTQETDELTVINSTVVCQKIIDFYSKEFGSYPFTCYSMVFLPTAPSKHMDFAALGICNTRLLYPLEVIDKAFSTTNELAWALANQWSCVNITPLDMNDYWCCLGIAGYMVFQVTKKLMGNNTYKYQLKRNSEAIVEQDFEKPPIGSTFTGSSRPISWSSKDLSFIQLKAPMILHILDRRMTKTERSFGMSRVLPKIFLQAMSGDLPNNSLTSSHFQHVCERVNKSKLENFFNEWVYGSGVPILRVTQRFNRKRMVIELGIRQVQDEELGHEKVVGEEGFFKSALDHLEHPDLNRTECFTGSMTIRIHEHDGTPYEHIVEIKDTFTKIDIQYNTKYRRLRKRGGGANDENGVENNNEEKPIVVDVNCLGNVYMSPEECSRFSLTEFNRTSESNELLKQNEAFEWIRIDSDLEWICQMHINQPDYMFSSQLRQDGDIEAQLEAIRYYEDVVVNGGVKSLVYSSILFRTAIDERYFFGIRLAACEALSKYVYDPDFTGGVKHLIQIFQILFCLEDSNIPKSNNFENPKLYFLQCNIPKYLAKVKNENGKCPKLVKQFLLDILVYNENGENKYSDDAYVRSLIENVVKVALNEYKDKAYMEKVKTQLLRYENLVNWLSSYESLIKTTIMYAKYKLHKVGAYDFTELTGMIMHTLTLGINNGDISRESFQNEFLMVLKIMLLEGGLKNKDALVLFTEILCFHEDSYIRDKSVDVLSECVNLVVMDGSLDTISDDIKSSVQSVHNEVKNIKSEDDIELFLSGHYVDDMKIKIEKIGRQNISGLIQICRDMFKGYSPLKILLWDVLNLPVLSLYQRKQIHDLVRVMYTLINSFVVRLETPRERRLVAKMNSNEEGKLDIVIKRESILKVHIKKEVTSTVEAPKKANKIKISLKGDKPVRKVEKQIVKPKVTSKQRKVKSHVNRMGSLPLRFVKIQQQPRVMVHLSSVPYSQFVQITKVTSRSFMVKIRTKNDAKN

Taf14FL = Taf14FL (Saccharomyces cerevisiae, UniProt P35189 1-244); test: EMSA; EMSA: 20-25 mM Tris-HCl pH 7.5, 100-150 mM NaCl, 0.2 mM EDTA (+20% glycerol for NCP), 4 °C 10 min, 0.25 pmol/lane; NMR: 50 mM Tris pH 6.6-7.5, 150 mM NaCl or 1x PBS, 298 K; conditions: protein: recombinant; 15N-labelled for NMR; 5' overhang 1 nt (extra T on strand 2 as printed)
Taf14FL;Taf2CT = Taf14FL;Taf2CT (Saccharomyces cerevisiae;Saccharomyces …, UniProt P35189;P23255 1-244;1392-1402, |); test: EMSA; Taf14:Taf2CT 1:10; augmented vs Taf14FL alone; EMSA: 20-25 mM Tris-HCl pH 7.5, 100-150 mM NaCl, 0.2 mM EDTA (+20% glycerol for NCP), 4 °C 10 min, 0.25 pmol/lane; NMR: 50 mM Tris pH 6.6-7.5, 150 mM NaCl or 1x PBS, 298 K; conditions: 15N-labelled for NMR;; 5' overhang 1 nt (extra T on strand 2 as printed)
[5] = target: T1, Taf14FL (full-length Taf14, aa 1–244) (S. cerevisiae, UniProt P35189 1-244); test: NMR titration; 1H,15N HSQC of 0.1–0.3 mM uniformly 15N-labeled Taf14 protein, unlabeled peptide added; 298 K; 50 mM Tris-HCl pH 6.6–7.5, 150 mM NaCl, 0–5 mM DTT or 0.2 mM TCEP, or 1x PBS pH 6.6–7.5; conditions: both partners purified
T1 construct: Taf14 (transcription initiation factor subunit 14), S. cerevisiae, aa 1–244, a 244-residue protein; In the EMSAs (functional rows) GST-Taf14 or Taf14 proteins were used; source: E. coli Rosetta-2 (DE3) pLysS, purified (SEC for cross-linking; 15N-labeled for NMR)
T1 sequence (looked up): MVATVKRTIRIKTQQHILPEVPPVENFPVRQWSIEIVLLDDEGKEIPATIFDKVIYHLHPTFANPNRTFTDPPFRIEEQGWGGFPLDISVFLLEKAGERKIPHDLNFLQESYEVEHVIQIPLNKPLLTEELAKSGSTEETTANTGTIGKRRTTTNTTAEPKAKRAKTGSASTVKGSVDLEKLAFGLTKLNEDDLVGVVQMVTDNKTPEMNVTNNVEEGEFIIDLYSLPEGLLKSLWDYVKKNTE

His-Taf14_(YEATS) = target: T2, His-Taf14_(YEATS) (S. cerevisiae, UniProt P35189 1-137); test: MST; His-tagged Taf14 protein labeled with RED-tris-NTA kept at 20 nM, unlabeled peptide added stepwise; 20 mM Tris-HCl pH 7.5, 150 mM NaCl, 0–0.2 mM TCEP; Monolith NT.115; n = 2 or 3; conditions: both partners purified
T2 construct: Taf14, S. cerevisiae, YEATS domain, aa 1–137; Labelled on the His tag with the His-Tag Labeling Kit RED-tris-NTA (2nd Generation) for MST; source: E. coli Rosetta-2 (DE3) pLysS, purified (Ni-NTA, SEC)
T2 sequence (looked up): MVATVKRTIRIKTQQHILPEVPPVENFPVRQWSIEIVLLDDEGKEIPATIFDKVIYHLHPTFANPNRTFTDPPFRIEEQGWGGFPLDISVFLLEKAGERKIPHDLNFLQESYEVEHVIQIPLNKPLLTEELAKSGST

His-Taf14FL = target: T3, His-Taf14FL (S. cerevisiae, UniProt P35189 1-244); test: as above; conditions: both partners purified
T3 construct: Taf14, S. cerevisiae, aa 1–244; Labelled on the His tag with the His-Tag Labeling Kit RED-tris-NTA (2nd Generation) for MST; source: E. coli Rosetta-2 (DE3) pLysS, purified (Ni-NTA, SEC)
T3 sequence (looked up): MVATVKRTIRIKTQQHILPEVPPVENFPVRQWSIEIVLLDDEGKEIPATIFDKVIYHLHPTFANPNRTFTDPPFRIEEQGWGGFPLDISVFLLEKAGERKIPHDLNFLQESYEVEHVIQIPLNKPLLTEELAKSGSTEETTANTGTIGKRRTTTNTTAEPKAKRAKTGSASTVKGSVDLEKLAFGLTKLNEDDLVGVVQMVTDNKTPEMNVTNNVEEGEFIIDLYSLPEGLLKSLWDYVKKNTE

[6] = target: T4, Taf14_(YEATS) (YEATS domain of Taf14, aa 1–137) (S. cerevisiae, UniProt P35189 1-137, uniformly 15N-labeled); test: NMR titration; 1H,15N HSQC of 0.1–0.3 mM uniformly 15N-labeled Taf14 protein, unlabeled peptide added; 298 K; 50 mM Tris-HCl pH 6.6–7.5, 150 mM NaCl, 0–5 mM DTT or 0.2 mM TCEP, or 1x PBS pH 6.6–7.5; conditions: both partners purified
T4 construct: Taf14, S. cerevisiae, YEATS domain, aa 1–137; source: E. coli Rosetta-2 (DE3) pLysS, minimal media with 15NH4Cl, purified
T4 sequence (looked up): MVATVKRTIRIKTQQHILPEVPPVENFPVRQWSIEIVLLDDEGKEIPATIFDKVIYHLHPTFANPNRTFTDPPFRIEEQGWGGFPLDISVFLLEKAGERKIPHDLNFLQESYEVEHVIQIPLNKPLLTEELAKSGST

## Taf14_(Linker) peptide (aa 145–169 of Taf14) (from UniProt P35189 145-169)
[1]
  Kd: 640 µM

## 601 Widom DNA 147 bp
[2]
  binding signal (fold tighter than Taf14FL): > 6
[3]
  binding signal (fold tighter than Taf14FL): > 6

## Taf14ET (ET domain of Taf14, aa 168–243) (from UniProt P35189 168-243) (domain or fragment)
[4]
  Kd: 1.6 µM

B1: 37 bp non-specific dsDNA (dsDNA)
DNA 1: CGTGTCAGATATATACATCCGATATCAGATCTCGTCA
DNA 2: TTGACGAGATCTGATATCGGATGTATATATCTGACACG
Taf14FL
  binding result: binds
Taf14FL;Taf2CT
  binding result: binds

## ARTKQTARKSTGGKAPRKQ (peptide, UniProt P61830 2-20, looked up, crotonyl-lysine at 9, the NMR methods list only H3K9cr_(5-13)) [H3K9cr_(1-19) peptide]
[5]
  binding result: binds

B2: Taf2CT peptide (aa 1392–1402 of Taf2) (peptide, UniProt P23255 1392-1402, looked up)
peptide: SRSFMVKIRTK
notes: Taf2, subunit of yeast TFIID, C-terminal hxhKh motif-containing tail, aa 1392–1402; also called Taf2 peptide; C-terminal tail of Taf2; source: synthetic peptide (Synpeptide)
His-Taf14_(YEATS)
  Kd: 6 µM
His-Taf14FL
  Kd: 0.7 µM

B3: H3K9cr_(5-13) peptide (residues 5–13 of H3) (peptide, UniProt P61830 6-14, looked up)
peptide: QTARK(Crotonyl(E))STGG
notes: also called H3K9cr peptide; source: synthetic peptide (Synpeptide)
[6]
  binding result: binds

Reference: paper PMC9177701, “Taf2 mediates DNA binding of Taf14” (Nature Communications, 2022)
